{
  "source": "patent US20050119176A1",
  "about": "(BURNHAM INSTITUTE, published 2005)",
  "key": {"[1]": {"biological_target": "GST-BIR2 (glutathione-S-transferase-BIR2 fusion protein) (human) (UniProt P98170)", "sequence (P98170 124-240)": "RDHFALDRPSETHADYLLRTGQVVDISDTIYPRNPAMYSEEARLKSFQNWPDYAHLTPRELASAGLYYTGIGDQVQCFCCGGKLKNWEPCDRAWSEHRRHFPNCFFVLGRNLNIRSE", "test": "fluorescence polarization; 20 nM rhodamine-SMAC, GST-BIR2 from 0 to 495 nM"}, "[2]": {"biological_target": "BIR3RING (human) (UniProt P98170)", "sequence (P98170 243-497 limits assumed)": "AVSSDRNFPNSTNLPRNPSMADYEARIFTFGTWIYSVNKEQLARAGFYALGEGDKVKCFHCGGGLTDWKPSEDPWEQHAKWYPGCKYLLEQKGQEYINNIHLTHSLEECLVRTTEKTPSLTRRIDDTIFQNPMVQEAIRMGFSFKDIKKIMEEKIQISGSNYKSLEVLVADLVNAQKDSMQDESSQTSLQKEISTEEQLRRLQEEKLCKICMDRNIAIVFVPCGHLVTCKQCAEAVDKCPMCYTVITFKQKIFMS", "test": "fluorescence polarization; 20 nM rhodamine-SMAC, BIR3RING titrated"}, "[3]": {"biological_target": "GST-XIAP (human, UniProt P98170 1-497)", "sequence (P98170 whole entry)": "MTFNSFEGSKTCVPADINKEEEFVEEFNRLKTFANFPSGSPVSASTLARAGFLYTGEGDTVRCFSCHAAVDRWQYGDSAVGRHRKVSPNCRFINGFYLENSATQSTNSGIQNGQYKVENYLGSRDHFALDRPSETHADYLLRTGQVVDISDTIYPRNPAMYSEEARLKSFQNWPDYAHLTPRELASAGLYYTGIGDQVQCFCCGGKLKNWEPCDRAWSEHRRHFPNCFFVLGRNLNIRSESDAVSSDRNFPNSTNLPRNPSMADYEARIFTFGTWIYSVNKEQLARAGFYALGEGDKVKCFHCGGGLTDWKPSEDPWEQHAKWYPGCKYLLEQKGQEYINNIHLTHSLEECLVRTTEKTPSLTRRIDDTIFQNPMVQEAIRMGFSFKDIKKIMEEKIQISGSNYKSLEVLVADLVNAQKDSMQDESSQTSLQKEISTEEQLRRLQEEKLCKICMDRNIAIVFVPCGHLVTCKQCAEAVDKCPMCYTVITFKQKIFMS", "test": "cell-based or functional assay"}},
  "note": "Where no end group is shown, it is not given here. [ ]: non-standard residue; d: D form. 2Nal = N[C@@H](Cc1ccc2ccccc2c1)C(=O)O; d2Nal = N[C@H](Cc1ccc2ccccc2c1)C(=O)O; 2Thi = N[C@@H](Cc1cccs1)C(=O)O; Cha = N[C@@H](CC1CCCCC1)C(=O)O; d2Thi = N[C@H](Cc1cccs1)C(=O)O; dCha = N[C@H](CC1CCCCC1)C(=O)O",
  "data": [
    {"molecule": "rhodamine labeled SMAC (rhodamine-SMAC) of Example VII (peptide)", "values": [
      {"measurement": "Kd", "setting": "[1]", "value": 100, "unit": "nM"},
      {"measurement": "Kd", "setting": "[2]", "value": 80, "unit": "nM"}
    ]},
    {"molecule": "AWW[2Thi] (also: Trp of TPI 1332 batch may retain formyl groups)", "note": "[TPI 1332-1 / TPI 1352-1]", "values": [
      {"measurement": "ratio of Vmax for hydrolysis of Ac-DEVD-AFC with and without the peptide (caspase-3 + XIAP)", "setting": "[3]", "value": "> 2.4"}
    ]},
    {"molecule": "[2Nal][d2Thi][dF][dW]", "note": "[TPI 1352-72]", "values": [
      {"measurement": "ratio of Vmax for hydrolysis of Ac-DEVD-AFC with and without the peptide (caspase-3 + XIAP)", "setting": "[3]", "value": "> 2.4"}
    ]},
    {"molecule": "A[dW]W[2Thi] (also: Trp of TPI 1332 batch may retain formyl groups)", "note": "[TPI 1332-47 / TPI 1352-47]", "values": [
      {"measurement": "ratio of Vmax for hydrolysis of Ac-DEVD-AFC with and without the peptide (caspase-3 + XIAP)", "setting": "[3]", "value": "> 2.4"}
    ]},
    {"molecule": "[Cha][d2Nal]W[2Thi] (also: Trp may retain a formyl group)", "note": "[TPI 1332-41]", "values": [
      {"measurement": "ratio of Vmax for hydrolysis of Ac-DEVD-AFC with and without the peptide (caspase-3 + XIAP)", "setting": "[3]", "value": "> 2.4"}
    ]},
    {"molecule": "[2Nal][dCha]W[dW]", "note": "[TPI 1352-66]", "values": [
      {"measurement": "ratio of Vmax for hydrolysis of Ac-DEVD-AFC with and without the peptide (caspase-3 + XIAP)", "setting": "[3]", "value": "> 2.4"}
    ]},
    {"molecule": "A[dW]W[2Thi]", "note": "[TPI 1352-6]", "values": [
      {"measurement": "ratio of Vmax for hydrolysis of Ac-DEVD-AFC with and without the peptide (caspase-3 + XIAP)", "setting": "[3]", "value": "> 2.4"}
    ]}
  ]
}
